We go through two molecules from patent publication US20140363427A1 (CRUCELL HOLLAND B V, published 2014).

As a reminder, the EC50 is the concentration giving half of the maximal effect.

Test [1] has as its target T1, native RSV F protein from the RSV A2 strain (Respiratory Syncytial Virus strain A2, UniProt P03420 26-574). Put plainly: cell-based or functional assay.
Test [2] concerns the target T2, recombinant RSV F protein, strain A2, extracellular domain (Respiratory Syncytial Virus strain A2, UniProt P03420 26-524).
T2 construct: also called RSV F1 lysate (recombinant); RSV F lysate
Description: ELISA, purified Fab, estimated EC50.

The target of test [3] is F protein of the parental RSV A2 strain (Example 11) (Respiratory Syncytial Virus strain A2, UniProt P03420 26-574). Put plainly: cell-based or functional assay.
In test [4] the target is T1, native RSV F protein from the RSV A2 …. Description: cell-based or functional assay. The source holds these as a separate data set.
The target in test [5] is F protein of RSV B-wash (strain 18537) (respiratory syncytial virus B, strain …, UniProt P13843 26-574). Description: cell-based or functional assay.
A further test concerns the target F protein of RSV B-1 (respiratory syncytial virus B-1, UniProt O36634 26-574). Put plainly: cell-based or functional assay.
The target in another test is T3, RSV F A2 mutant V278M (human RSV, A2 strain, UniProt P03420 26-574).
T3 construct: whole, on cells
Put plainly: mutant F in HEK 293 cells.

Like-named read-outs stand apart in the source and are kept apart here.

B1: Fab 14G3 (Fab, V domains shown)
VH: QVQLQESGPGLVKPSQTLSLTCTVSGASISSDNHYWSWIRQPPGKGLEWIASIYYTGGTNYNPSLKSRLALSIDTSGDQFSLKLSSVTAADTAVYYCVRGLFFITARPYWYFDLWGRGTLVAVSS
VL: DVVMTQTPLSLSVTPGEPASISCRSSQSLLDSDDGNTYLDWYLQKPGQSPQLLIYTLSYRASGVPDRFSGSGSGTDFTLKISRVEADDVGIYYCMQRMEFPFTFGQGTRLDIKR
B1: in test [1], the “ED50, plaque reduction, RSV A2” value was determined as 3.4 nM and the “ED50, plaque reduction, RSV A2 (mass concentration)” value turned out to be 0.172 µg/mL. The EC50 in test [2] was 8.2 nM.

B2: IgG form of 30D8 (antibody, V domains shown)
VH: EVQLLQSGAELKKPGASVKISCKTSGFTFSGHTIAWVRQAPGQGLEWMGWVSTNNGNTEYAQKIQGRVTMTMDTSTSTVYMELRSLTSDDTAVYFCAREWLVMGGFAFDHWGQGTLLTVSS
VL: QSVLTQASSVSVAPGQTARITCGANNIGSQNVHWYQQKPGQAPVLVVYDDRDRPSGIPDRFSGSNSGNTATLTISRVEAGDEADYYCQVWDSSRDQAVIFGGGTKLTVLG
notes: also called IgG 30D8; 30D8 Mab
Regarding B2, the “ED50, plaque reduction, RSV A2 parental” value in test [3] was found to be 0.096 nM. Further, the “ED50, plaque reduction, RSV A2” value in test [4] came to 0.089 nM. Moreover, the “ED50, plaque reduction, RSV B/wash” value in test [5] stood at 0.115 nM. In addition, the “ED50, plaque reduction, RSV B-1” value with F protein of RSV B-1 stood at 0.055 nM. Besides, the “ratio of binding 58C5/30D8” value with RSV F A2 mutant V278M worked out at 3.1.
